This series is described as follows: label from the status in PepcDB records.
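Further: failed if final PepcDB status was selected cloned or expressed and not failed if soluble or beyond.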

On to “MSGHKCYSWELQDRFAQDKSVVNKMQQKYWETKQAFIKATGKKEDEHVVASDADLDAKLELFHSIQRTCLDLSKAIVLYQKRICFLSQEENELGKFLRSQGFQDKTRAGKMMQATGKALCFSSQQRLALRNPLCRFHQEVETFRHRAISDTWLTVNRMEQYRTEYRGALLWMKDVSQELDPDLYKQMEKFRKVQTQVRLAKKNFDKLKMDVCQKVDLLGASRCNLLSHMLATYQTTLLHFWEKTSHTMAAIHESFKGYQPYEFTTLKSLQDPMKKLVEKEGKKTSWRENREAVAPEPRQLISLEDEHKDSSTYKTEEGTSVLSSVDKGSVHDTCSGPIDELLDGKPEEACLGPTAGTPEPESGDKDDLLLLNEIFSTSCLDEGEFSREWAAVFGDDRLKEPAPMGAQGEPDPKPQIGSGFLPSQLLDQNMKDLQASLQEPAKAASDLTAWFSLFADLDPLSNPDAVGKTDKEHELLNA”, for which the protein production result is “failed”. Then “MSGPSTYQPQSPLMKWLEQRLPIAGLVHSSFIAYPTPRNLNYWWTFGAILSMMLAVQIVTGIVLAMHYTPHVDLAFDSVERIVRDVNYGWLLRNMHAAGASMFFIAVYVHMLRGLYYGSYKAPREVLWILGVIIYLLMMATGFMGYVLPWGQMSFWGATVITNLFSAFPIVGDSIVTLLWGGYSVGNPTLNRFFSLHYLLPFVIAGVVVLHVWALHVTGQNNPAGVEPKTEKDTVPFTPYATLKDVFGMSCFLVFYSWFIFYMPNYLGDAENYVPANPGVTPPHIVPEWYYLPFYAILRSIPNKLMGVIAMFGAIIVLLFLPWLDSCKVRSSRYRPMAKRFFWAFVVTCLVLGWLGSKPAEGIYTTLGQVFTFFYFAYFLIVLPVLGRMEKTLPLPNSIAEDVLNKGKVAKAVAGLVAVLFAGGLMVGGVQPAKANEGGENPPSLQWSFAGPFGTYDRAQLQRGFKIYKEVCSNCHSLKLLQYRNLAEPGGPGFTVEQAKEIAAAAQIKDGPNDQGEMFERPGRLADTFHSPFPNEQAARAANGGAAPPDMSLLAKARTYPRGFPQFIFDFFTQFQEQGPNYIAALLQGYEDTPPEGFSLPDGSFYNKWYPGHSIKMPPPIQAGMVSYDDGTPETLEQYAKDISTFLVWASEPHMEARKRLGLQVMIFLVILSSLLYFVKRKVWSNVH”, with “failed”; and “MSGRGKVKSEPMKVVFINTQYVETDARSFKTVVQELTGKNAIVAAGPFDSPSAFDGRCYDGGSKIGEDTRQLHGGGGGGGRMGTTTEFDRLFKEMPHMEELYKLWSEY”, with “failed”. The result for “MSGRLRNALHKIRDRGLTPRDLFSYGCIAGHRLLSGAWGTLMLRAKAGCLGITVGKGCECFGTVILSRWPGSRIELGDGVSIISSSRRCTSATIHAPTRLRTFAPTARIILEDGVSLNGTAITARSRTIRIGKGTMVAPNCVITDSDFHAMWPPETRLDTPAFERDADVTIGQHVWLGMRCIVLKGVTIGDGAIVAAGSVVTRDVPPATLVAGVPARVVRHLP” reads “failed”; that for “MSGSQPGRDKAIPAPRPTADIWENPDQLPADRGDLIKAKLTPAVITIFLRNNLKRIALLASALFVLGMIVLWLLPVRYAATALVMVDPREQRVTTDQEVLPGIGQDAAALQSLIEIAKSDGFLRPLVEKLKVAEDHEIAGSETDPARVLDRFRKHLEIARRGLTYVIEMTFVAKDPQRAAYYANAVAEAFVASQTQVRAVAADEAAGWLSSRLKTLNEKLRASEDAVAAFKTQYRIVDAGRESTTRQLRVTELTQQVSAARLRTEEAKNRYEQAQRDLKSDVDGSTGSKSDLVSVLRTQRTQLNDQIAQKRAVLGDRHPELVIAYNQLAELNRQIEAERKRNIVSAKSDYDAMRDQLKALEQQLKSLETEMLGDDQAAVKLKELQREANANRAIYEQFLERYNTTNQQRLLQATQTKVASFATPPTRPTRPPLLVLIAAIAVASILVSIAVVAMLASLSNQPEQADNSGPPEGATAPVPVEAAATSAAEPIEEKKPAADYSNLPIVLRIPDLSGARTLGGKLAMLGGERRLDHYVVGLLDAIGVKPSQRGMVVLVTSVDPGAGKSSVARALNAIAVDRGMLSVVIEVAGQARSVPAAPSNRAEPDGGALVRVLKTTIPSVVRLIASEPDVSAQNDVRSEFDLILIDAPALATQTEVAEIAAHTDLNLLVIDSAVTEAGAALEAQALLSRRGHAPAGVVVNKAGAQPAPAAVPAARLAS”, “failed”; that for “MSGTSAALKPPADATTPVRHPDAPAPGELLGAHYGHCFGCGEEQSHGLHLAARAGQGVSITAEFTVQPAHQGAPGLAHGGVLATALDETLGSLNWLLRTIAVTGRLETDFVRPVPVGTVLYLEAEVTAVAGRKIYSTATGRIGGPEGPVAVRADALFVEVKVDHFTDNGRQEEIRAAMNDPDQLRRARAFEVNP”, “failed”. “MSGYFEILAILTCAVFVVWLFRRLNLPAILAYLVAGMLVGQHGLNLVQDQVDYDHFAELGIVFLLFTLGLEFSLPRLMAMRHLVVSVGSLQVGISLLVFIIAGLFFGLSFSEAFVVGSILALSSTAIVIRQLSETGAMKRKSGQLSVAILLFQDVAVVPLLIIIPMLAMDSQSSMVWALMLAMVKGVVVVALLLLIGKWLLPKVFNIIAQVRTDELFVLTTLLVTLLAAAFTQWFGLSMALGAFLAGMMLSESEYKHQLEADIRPYRDILLGLFFITVGMKLDVSLLISSPFSLLGLMLCFMLVKIMVIKILAVKAGESSKDAWASGLMLAQMGEFGFVLIALANQSQILPLDVASMLLGAGVISMAITPFMINNARSWALFLSQEKSPESLDLSQLPENKVLENHVVICGFGRVGQTVSRFLKQDEIDFVAIDVDPLRTQKAREAGEKVLFGSSRQTEVLNAAHLSEAKLVVIAFGDDKQSLEVIQKVRSMNEKVPILVRTRNDDQLDALQAAGANEVVPESLEGSLMLVSQVLSLTGVPFSRIMRRVQRERKNHYNHLHGFFQGEHTDMSPQAIDRIEFAHAILINDNSFSCGKSIESLNLGKMRVNVVALRRGDIECESPGKDTVLQAQDTLIIRGKPRGVEKADHYVQEGK”: the protein production entry is recorded as “failed”. The result for “MSHLLEKAAARGDLAALERLLDAGADLEWQHKGTGRTALLAATIAGHQPAVALLLARGANVQQPCKALGYSPLAWAASHGDTALAELLIAHGAALEQASPELQRTALMNAAQAGHEAMVALLLKAGANPSPVDFQQRNAWSLAEENGHAQVMQQLEQAGTGAPPAPAPAPSLPWPPLVPGTDSSADPVTQVRAYTLALYAWEQRGNALGHEALDAAFWAEPQQLLERFCTLRPRAYPRASYGYPTTHAEADELLGCQLLKPAQAEVLVRDPASRALCYEHRFVVKRVAGQWRIDSVKRRLAGTQKWANAIL” reads “failed”; that for “MSHPDYRMNLRSLGTHRGVSAVAGPHDIGASPGDKKSKNRSTRGKKKSIFETYMSKEDVSEGLKRGTLIQGVLRINPKKFHEAFIPSPDGDRDIFIDGVVARNRALNGDLVVVKLLPEEHWKVVKPESNDKETEAAYESDIPEELCGHHLPQQSLKSYNDSPDVIVEAQFDGSDSEDGHGITQNVLVDGVKKLSVCVSEKGREDGDAPVTKDETTCISQDTRALSEKSLQRSAKVVYILEKKHSRAATGFLKLLADKNSELFRKYALFSPSDHRVPRIYVPLKDCPQDFVARPKDYANTLFICRIVDWKEDCNFALGQLAKSLGQAGEIEPETEGILTEYGVDFSDFSSEVLECLPQGLPWTIPPEEFSKRRDLRKDCIFTIDPSTARDLDDALSCKPLADGNFKVGVHIADVSYFVPEGSDLDKVAAERATSVYLVQKVVPMLPRLLCEELCSLNPMSDKLTFSVIWTLTPEGKILDEWFGRTIIRSCTKLSYEHAQSMIESPTEKIPAKELPPISPEHSSEEVHQAVLNLHGIAKQLRQQRFVDGALRLDQLKLAFTLDHETGLPQGCHIYEYRESNKPCCAGTPRPKQGCSVTWWNSATRWGCPWTSAPQEPSIKA”, “failed”. “MSHPSYPPAPQNDAGAGIPQVPAAPYAYGRQFQGGAQPGYQPGPDSGPYGSPVGAPAKSFMTTWILALLLGSFGVDRFYLGKIGTGIAKLLTAGGFGIWSIVDLIITLTGNARDKQGRPLAGYPENKKKAWIITIVVWFAGLIVGIVSTVLSLTFVAAAVQGAGTDAPVLPSASQEAPAPSSGTASDDGSLTVTMSEGNTVKVSLLNSGYTTEIPGMSYMKPTRGGFLLLEVSWEATAGSSYASPSNFEAFDADGAKGEEIYVEEGLGGLPSGDVAAGEMQRGVIAFDIKNGPTTVVISDDFGDKAATFTLTPAN”: the protein production result is on record as “failed”. For “MSHSHSHGHSHEPTNYNRAFIISVALNTGFVVIEVVYGLAANSLALLADAGHNLSDVLGLLLAWGASFLGRRQPTPRRTYGLRRSSILAALLNAVLVLVASGAVAWEAIQRFAQPSPVSGSTIIGVAAVGIAINMGSALMFLSGRERDLNIRGAFIHLVADAAVSLGAVLAGIAIVATGWLWFDPVVSLMIVVVIIVSTWQLFQESLNLVTDAVPAGIEPLAVRTFLAELPGVSSIHDLHIWAMSTTETALTAHLIMPAGNLSDAFLVQVNQQLHDHFGIEHTTIHIETGDPSYPCPLAQENVV”, the protein production result was “failed”. Then “MSHVELQPGFDFQQAGKEVLAIERECLAELDQYINQNFTLACEKMFWCKGKVVVMGMGKSGHIGRKMAATFASTGTPSFFVHPGEAAHGDLGMVTPQDVVIAISNSGESSEITALIPVLKRLHVPLICITGRPESSMARAADVHLCVKVAKEACPLGLAPTSSTTATLVMGDALAVALLKARGFTAEDFALSHPGGALGRKLLLRVNDIMHTGDEIPHVKKTASLRDALLEVTRKNLGMTVICDDNMMIEGIFTDGDLRRVFDMGVDVRQLSIADVMTPGGIRVRPGILAVEALNLMQSRHITSVMVADGDHLLGVLHMHDLLRAGVV”, with “failed”; and “MSHVLVNVAWPYANGPRHIGHVAGFGVPSDVYARYERMKGNDVLMVSGTDEHGTPILVEAEKEGLTAQELANRYNRVIAKDLCDLGLSYDLFTRTTTGNHEHVVQEMFKQCLENGYIYKGSQQVAISPSTGRTLPDRYIEGECPICHAEGARGDQCDACGNELDPDELINPVSKINGETPRFEQTEHYFLDLPALAEANKAWLETRKGWRTNVINFSLGLFKEVKPRAITRDIDWGIPVPVKGWIDNPNKKLYVWFDAVIGYLSASIEWARRQGDPEKWREWWNDPKCPAYYFMGKDNITFHSQIWPSEMLAYNGKGSKGGETGPMGPLNLPEQVVASEFMTMEGKKFSSSRGIVIYVKDILARYPVDAVRYYISVAGPESSDSDFTWAEFVRHNNEELASSWGNLVNRVANLINKNFGEIPPLDEDSMTNEDRGLLEEASAAFDVVGSSIETHHQKHALSEAMRVVGDINKYISATEPWKIKDDQARLGTVLHVAAQAVSDANHLLAPFLPHSAQKVWEALGGTGTFSPLPELKEVEDLDKPGFTYPIITGDYELGVNVHPWKSEAIEVGAVVPKPAPIFAKIPTEAVEEELARFDEALAARRAAEAERLAAEKAKLAAE”, with “failed”. For “MSHYQCAVCSSIDANPNSLAVNYQCLADSSVVGEFHVLPRHQGYTDLLHGGIASSLLDGAMTHCLLFRDIQALTAQLDVRYHAPIELDEHVTITAHCEGERRGIYQLVAQLLVNNEVRVTAKGKFIRPKLEHHHHHH”, the protein production result is “not failed”. Then “MSICPHIQQVFQNEKSKDGVLKTCNAARYILNHSVPKEKFLNTMKCGTCHEINSGATFMCLQCGFCGCWNHSHFLSHSKQIGHIFGINSNNGLLFCFKCEDYIGNIDLINDAILAKYWDDVCTKTMVPSMERRDGLSGLINMGSTCFMSSILQCLIHNPYFIRHSMSQIHSNNCKVRSPDKCFSCALDKIVHELYGALNTKQASSSSTSTNRQTGFIYLLTCAWKINQNLAGYSQQDAHEFWQFIINQIHQSYVLDLPNAKEVSRANNKQCECIVHTVFEGSLESSIVCPGCQNNSKTTIDPFLDLSLDIKDKKKLYECLDSFHKKEQLKDFNYHCGECNSTQDAIKQLGIHKLPSVLVLQLKRFEHLLNGSNRKLDDFIEFPTYLNMKNYCSTKEKDKHSENGKVPDIIYELIGIVSHKGTVNEGHYIAFCKISGGQWFKFNDSMVSSISQEEVLKEQAYLLFYTIRQVN”, with “failed”.

Source of the values: a protein production outcome set (Wang et al. 2014).
